Consider 1 molecule from PMC4145800, “A tethered delivery mechanism explains the catalytic action of a microtubule polymerase” (eLife, 2014).

The target of the assay is T1, wild-type (polymerization-competent) yeast αβ-tubulin (yeast, UniProt P09733 1-447; P02557 1-457).
T1 construct: α-tubulin of yeast; β-tubulin of yeast, wild type; source: overexpressed in Saccharomyces cerevisiae, purified; copies: 1 + 1
Put plainly: AUC; sedimentation velocity; seven concentrations of TOG1 or TOG2 (44 nM-4.5 μM) titrated into 0.35 μM αβ-tubulin; 1:1 binding isotherm fitted; RB100 with 20 μM GTP, 20°C. Conditions: both partners purified.

B1: TOG2 domain from Stu2p, TOG2(318-560) (domain or fragment)
chain: MLPEETILDKLPKDFQERITSSKWKDRVEALEEFWDSVLSQTKKLKSTSQNYSNLLGIYGHIIQKDANIQAVALAAQSVELICDKLKTPGFSKDYVSLVFTPLLDRTKEKKPSVIEAIRKALLTICKYYDPLASSGRNEDMLKDILEHMKHKTPQIRMECTQLFNASMKEEKDGYSTLQRYLKDEVVPIVIQIVNDTQPAIRTIGFESFAILIKIFGMNTFVKTLEHLDNLKRKKIEETVKTL
Broadly, the Kd is a measure of binding affinity in units of concentration. Higher therefore signals a looser complex. A word on the stoichiometry N: it is the number of molecules, sites or subunits per partner or assembly. Turning to B1, binding was characterised by a dissociation constant (Kd) of 160 nM and the “stoichiometry N” value worked out at 1.
